Target: recombinant HAstV1 capsid spike, histidine-tagged (Human astrovirus 1 (AAC34717.1), UniProt O12792)
Test: BLI

recombinant HAstV1 capsid spike, histidine-tagged, sequence (O12792 429-645): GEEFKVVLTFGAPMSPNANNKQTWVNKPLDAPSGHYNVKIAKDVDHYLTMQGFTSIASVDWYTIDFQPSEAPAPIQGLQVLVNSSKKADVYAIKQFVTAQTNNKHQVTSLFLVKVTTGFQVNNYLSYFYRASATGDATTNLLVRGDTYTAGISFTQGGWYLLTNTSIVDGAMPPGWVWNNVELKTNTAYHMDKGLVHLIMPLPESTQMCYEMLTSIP

B1: recombinant Fab 3H4 (Fab, V domains shown)
VH: QVQLKESGPGLVAPSQSLSISCTVSGFSLTTFGIHWIRQPPGKGLEWLGVIWAAGTTNYNSTLKSRLTITKDNSRSQVFLKMNSLQTYDTAIYYCVREDYDYFFGLDYWGQGTSVTVSS
VL: QAVVTQESALTTSPGETVTLTCRSSTGAVTTSNYASWVQEKPDHLFIGLIGGTNNRAPGVPARFSGSLIGDKAALTITGAQTDDEAIYFCALWFSNHWVFGGGTKLTVL
Kd: 0.49 nM

B2: recombinant Fab 3B4 (Fab, V domains shown)
VH: QVQLHQPGAELVKPGASVNLSCKASGYTFTSYWMHWVKQRPGQGLEWIGEINPSSGRANYNEKFKNKATLTVDKSSITAYMHLSSLTSEDSAVYYCHWDYYAMDYWGQGTSVTVSS
VL: DIVLTQSPATLSVTPGDSVSLSCRASQSISNNLHWYQQKSHESPRLLFKSASQSISGIPSRFSGSGSGTDFTLSINSVETEDFGMYFCQQTNSWPLTFGTGTKLDLK
Kd: 11.8 nM

— PMC11419155 (bioRxiv, 2024)
